Data published in the RNAGym collection of RNA variant scans (doi:10.7554/elife.80360).

B1: HDV Ribozyme (parent)
chain: GGCCGGCAUGGUCCCAGCCUCCUCGCUGGCGCCGGCUGGGCAACAUUCCGAGGGGACCGUCCCCUCGGUAAUGGCGAAUGGGACCCA

Variants of: B1
Experiment: self-cleavage, relative activity (ratio to wild type); higher = more cleavage; co-transcriptional
GGCCGGCAUGGUCCCAGCCUCCUCGCUGGCGCCGGCUGGGUAAAAUUCCGAGGGGACCGUCCCCUCGGUAAUGGCGAAUGGGACCCA gave a self-cleavage of 0.353.
GGCCGGCAUGGUCCCAGCCUCCUCGCUGGCGCCGGCUGGGCAACAUUCCGAGGGGACCGUCCCCUGGGUAAUGGCGAAUGGGACCAA gave a self-cleavage of 0.984.
With GGCCGGCAUGGUCCCAGCCUCCUCGCUGGCGCCGGCUGGGCAACAUUCCGAGGGGGCCGUCCCCUGGGUAAUGGCGAAUGGGACCCA the self-cleavage was 1.01.
With GGCCGGUAUGGUCCCAGCCUCCUCGCUGGCGCGGGCUGGGCAACAUUCCGAGGGGACCGUCCCCUCGGUAAUGGCGAAUGGGACCCA the self-cleavage was 0.0536.
GGCCGGCAUGGUCCCAGCCUCCCCGCUGGCGCCGGCUGGGGAACAUUCCGAGGGGACCGUCCCCUCGGUAAUGGCGAAUGGGACCCA showed a self-cleavage of 0.201.
For GGCCGGCAUGGUCCCAGCCUCCUCGCUGGCGCCGGCUGGGCAACAUUCCUAGGGGACCGUCCCCUCGGUAAUGGCGAAUGGAACCCA, the self-cleavage was 0.499.
For GGCCGGCAUGGUCCCAGCCUCCUCGCUCGCGCCGGCUGGGCAACAUUACGAGGGGACCGUCCCCUCGGUAAUGGCGAAUGGGACCCA, the self-cleavage was 0.166.
In the case of GGCCGGCAUGGUCCCAGCCUCCUCGCUGGCGCCGGCUGGGCAACAUUCCGAGGGGACCGUCCCCUCGAUAAUGGCGAAUGGGACGCA, the self-cleavage is reported as 0.774.
With GGCCGGCAUGCUCCCGGCCUCCUCGCUGGCGCCGGCUGGGCAACAUUCCGAGGGGACCGUCCCCUCGGUAAUGGCGAAUGGGACCCA the self-cleavage was 0.277.
For GGCCAGCAUAGUCCCAGCCUCCUCGCUGGCGCCGGCUGGGCAACAUUCCGAGGGGACCGUCCCCUCGGUAAUGGCGAAUGGGACCCA, the self-cleavage was 0.203.
In the case of GGCCGGCAUGGUCCCAGCCUCCUCGCUGGCGCCGGCUGGGCAAUAUUCCGAUGGGACCGUCCCCUCGGUAAUGGCGAAUGGGACCCA, the self-cleavage is reported as 0.82.
For GGCCGGCACGGUCCCAGCCUCCUCGCUGGCGCCGGCUGGGCAACAUUCCGAUGGGACCGUCCCCUCGGUAAUGGCGAAUGGGACCCA, the self-cleavage was 1.06.
GGCCGGCAUGGUCCCAGCCUCCUCGCUGGCGCGGGCUGGGCAACAUUCCGAGGGGACCGUCCCCGCGGUAAUGGCGAAUGGGACCCA gave a self-cleavage of 0.222.
GGCCGGCUUGGUGCCAGCCUCCUCGCUGGCGCCGGCUGGGCAACAUUCCGAGGGGACCGUCCCCUCGGUAAUGGCGAAUGGGACCCA showed a self-cleavage of 0.
GGCCGGCAUGGUCCCAGCCUCCUCGCUGGCGCCGGCUGGGCAAUAUUCCGAGGGGACGGUCCCCUCGGUAAUGGCGAAUGGGACCCA showed a self-cleavage of 0.712.
In the case of GGCCGGCAUGGUCCCAGCCUCCUCGCUGGCGCCGGCUGGGCAACAUUCCGAGAGGACCGUCCCCUCGGUAAUGGCGAAUGCGACCCA, the self-cleavage is reported as 0.266.
GGCCGGCAUGGUCCCAGGCUCCUCUCUGGCGCCGGCUGGGCAACAUUCCGAGGGGACCGUCCCCUCGGUAAUGGCGAAUGGGACCCA gave a self-cleavage of 0.0386.
With GGCCGGCAAGGUCCCAGCCUCCUCGCUGGCGCCGGCUGGGCAACAUUCCGAGGGGACCGUCCCCUCGGUAAUGGCGAAUGGGACCCA the self-cleavage was 1.04.
With GGCCGGCAUGGUCCCAGCCUCCUCGCUGGAGCCGGCUGGGCAACAUUCCGAGGGGACCGUCCCCUCGGUAAUGGCGACUGGGACCCA the self-cleavage was 0.117.
For GGCCGGCAUGGUCCCAGCCUCCUCGCUGGAGCCGGCUGGGCAACAUACCGAGGGGACCGUCCCCUCGGUAAUGGCGAAUGGGACCCA, the self-cleavage was 0.486.
Variant GGCCGGCAUGGUCCCAGCCUCCUCGCUGGCGCCGGCUGGGCAACAUGCCGACGGGACCGUCCCCUCGGUAAUGGCGAAUGGGACCCA has a self-cleavage of 0.895.
In the case of GGCCGGCAUGGUCCCAGCCUCCUCGCUGGCGCCGGCUGGGCAACAUUCCGAGGUGACCGUCCCCUCGGUGAUGGCGAAUGGGACCCA, the self-cleavage is reported as 1.03.
Work on GGCCGGCAUGGUCCCAGCCCCCUCGCUGGCGCCGGCUGGGCAACAUUCCGAGGGGACCGUCACCUCGGUAAUGGCGAAUGGGACCCA yielded a self-cleavage of 0.
GGCCGGUAUGGUCCCAGCCUCCUCGCGGGCGCCGGCUGGGCAACAUUCCGAGGGGACCGUCCCCUCGGUAAUGGCGAAUGGGACCCA showed a self-cleavage of 0.431.
Work on GGCCGGCAUCGUCCCAGCCUCCUCGCUGGCGCCGGCUGGGCAACAUUCCGAGGGGACCGUCCCCUCGGUAAUGGCGAAUGAGACCCA yielded a self-cleavage of 0.131.
For GGCCGGCAUGGUCCCAGCCACCUCGCAGGCGCCGGCUGGGCAACAUUCCGAGGGGACCGUCCCCUCGGUAAUGGCGAAUGGGACCCA, the self-cleavage was 0.0723.
For GGCCGGCUUGGUCGCAGCCUCCUCGCUGGCGCCGGCUGGGCAACAUUCCGAGGGGACCGUCCCCUCGGUAAUGGCGAAUGGGACCCA, the self-cleavage was 0.237.
Work on GGCCGGCAUGGUCCCAGCCUCCUCGCUGGCGCCGGCUGGGCAACAUUCCGAGGGGACCGUCCCCACGGUAAUGGCGAAUGGGACUCA yielded a self-cleavage of 0.791.
In the case of GGCCGGCAUGGUCCCAGCCUCCUCGCUGGCGCCGGCUGGGCAACACUCCGAGGGGACCGUCCCCUCGGUGAUGGCGAAUGGGACCCA, the self-cleavage is reported as 1.03.
GGCCGGCAUGGUCCCAGCCUCCUCGCUGGCGCCGGCUGGGCAACAUUCCGAGGGGACCGUCGCCUCGGUAAUGGCGAAUGGGACUCA gave a self-cleavage of 0.902.
For GGCCGGCAUGGUCCCAGCCACCUCGCUGGCGCCGGCUGGGCAACAUUCCAAGGGGACCGUCCCCUCGGUAAUGGCGAAUGGGACCCA, the self-cleavage was 0.0449.
Work on GGCCGGCAUGGUCCCAGCCUCCUCGCUGGCGCCGGCUGGGCAACAUUCCGAGGGGAUCGUCCCCUCGGUAAUGGCGACUGGGACCCA yielded a self-cleavage of 0.312.
